This note sets out measurements from article PMC2950840.

For this assay, the target named is SARS-CoV 3C-like protease (3CL^pro) (SARS-CoV (strain CUHK-Su10)) (UniProt P0C6X7). The assay can be described thus: SEC; […] (20 mM Tris, 20 mM NaCl, pH 7.8); […]. A general note: SEC sorts molecules by how far they enter the pores of the column.

Substance “SARS-CoV 3C-like protease (3CL^pro) (from UniProt P0C6X7 3241-3546) (enzyme)” registered a stoichiometry N of 2.

The term stoichiometry N denotes the number of molecules, sites or subunits per partner or assembly.
